Results on 4 molecules are retold here after publication PMC3136212, “Identification of the DNA-Binding Domains of Human Replication Protein A That Recognize G-Quadruplex DNA”.

Data set [1] deals with T1, RPA-CDE-core (human, UniProt P27694;P15927;P35244 436-616;43-171;1-121). In words: CD titration; 100 mM NaCl; unfolds G4, complete at protein:DNA 2; FP: 0.060 uM FAM-oligo, 10-1500 mM NaCl, room temperature; CD: Buffer A 25 mM Tris pH 7.5, 2 mM MgCl2, 6% glycerol, 1 mM DTT, 100 (or 10) mM NaCl, room temperature. To be noted: protein: recombinant; tags: N-terminal His, thrombin-cleaved; copies: 1;1;1; intramolecular G4.

For data set [2], the target named is T2, RPA-C (human, UniProt P27694 432-595, V435T;W442Q;V465T;V469T;F523S;F567S;I571T). The experiment in a line: CD titration; 10 mM NaCl; 254 nm peak decreases, 292 nm unchanged; FP: 0.060 uM FAM-oligo, 10-1500 mM NaCl, room temperature; CD: Buffer A 25 mM Tris pH 7.5, 2 mM MgCl2, 6% glycerol, 1 mM DTT, 100 (or 10) mM NaCl, room temperature. To be noted: protein: recombinant; tags: N-terminal His, thrombin-cleaved; intramolecular G4.

Data set [3] deals with T3, RPA-DE (human, UniProt P15927;P35244 43-171;1-121). In words: CD titration; 10 mM NaCl; stabilizes antiparallel G4; FP: 0.060 uM FAM-oligo, 10-1500 mM NaCl, room temperature; CD: Buffer A 25 mM Tris pH 7.5, 2 mM MgCl2, 6% glycerol, 1 mM DTT, 100 (or 10) mM NaCl, room temperature. To be noted: protein: recombinant; tags: N-terminal His, thrombin-cleaved; copies: 1;1; intramolecular G4.

Data set [4] has as its target T4, RPA (full-length heterotrimer RPA1/RPA2/RPA3) (human, UniProt P27694;P15927;P35244 1-616;1-270;1-121). The experiment in a line: competition; FP, 0-10 uM unlabeled vs 60 nM FAM-Comp; FP: 0.060 uM FAM-oligo, 10-1500 mM NaCl, room temperature; CD: Buffer A 25 mM Tris pH 7.5, 2 mM MgCl2, 6% glycerol, 1 mM DTT, 100 (or 10) mM NaCl, room temperature. To be noted: protein: recombinant; copies: 1;1;1.

In data set [5] the target is T1, RPA-CDE-core. Described as above. Conditions: protein: recombinant; tags: N-terminal His, thrombin-cleaved; copies: 1;1;1.
In data set [6] the target is T3, RPA-DE. In words: FP; 10 mM NaCl; FP: 0.060 uM FAM-oligo, 10-1500 mM NaCl, room temperature; CD: Buffer A 25 mM Tris pH 7.5, 2 mM MgCl2, 6% glycerol, 1 mM DTT, 100 (or 10) mM NaCl, room temperature. Conditions: protein: recombinant; tags: N-terminal His, thrombin-cleaved; copies: 1;1; label: 5' 6-FAM.
For data set [7], the target named is T2, RPA-C. Described as above. Conditions: protein: recombinant; tags: N-terminal His, thrombin-cleaved; label: 5' 6-FAM.
Data set [8] deals with T1, RPA-CDE-core. The data set is described as above. Details: unit not given here. To be noted: protein: recombinant; tags: N-terminal His, thrombin-cleaved; copies: 1;1;1; label: 5' 6-FAM.
For data set [9], the target named is T1, RPA-CDE-core. In words: FP; 100 mM NaCl; FP: 0.060 uM FAM-oligo, 10-1500 mM NaCl, room temperature; CD: Buffer A 25 mM Tris pH 7.5, 2 mM MgCl2, 6% glycerol, 1 mM DTT, 100 (or 10) mM NaCl, room temperature. Conditions: protein: recombinant; tags: N-terminal His, thrombin-cleaved; copies: 1;1;1; label: 5' 6-FAM. Details: unit not given here.
Data set [10] has as its target T5, RPA-AB (human, UniProt P27694 181-441). The description is as above. The arrangement: unit not given here. Conditions: protein: recombinant; tags: N-terminal His6, thrombin-cleaved; label: 5' 6-FAM.
Data set [11] deals with T4, RPA (full-length heterotrimer …). The experiment in a line: FP; 500 mM NaCl; FP: 0.060 uM FAM-oligo, 10-1500 mM NaCl, room temperature; CD: Buffer A 25 mM Tris pH 7.5, 2 mM MgCl2, 6% glycerol, 1 mM DTT, 100 (or 10) mM NaCl, room temperature. Conditions: protein: recombinant; copies: 1;1;1; label: 5' 6-FAM.
The target of data set [12] is T2, RPA-C. In words: FP; 10 mM NaCl; FP: 0.060 uM FAM-oligo, 10-1500 mM NaCl, room temperature; CD: Buffer A 25 mM Tris pH 7.5, 2 mM MgCl2, 6% glycerol, 1 mM DTT, 100 (or 10) mM NaCl, room temperature. The arrangement: unit not given here. Conditions: protein: recombinant; tags: N-terminal His, thrombin-cleaved; label: 5' 6-FAM.
For data set [13], the target named is T5, RPA-AB. The experiment in a line: FP; 1500 mM NaCl; FP: 0.060 uM FAM-oligo, 10-1500 mM NaCl, room temperature; CD: Buffer A 25 mM Tris pH 7.5, 2 mM MgCl2, 6% glycerol, 1 mM DTT, 100 (or 10) mM NaCl, room temperature. The arrangement: unit not given here. To be noted: protein: recombinant; tags: N-terminal His6, thrombin-cleaved; label: 5' 6-FAM.
For data set [14], the target named is T4, RPA (full-length heterotrimer …). The experiment in a line: FP; 500 mM NaCl; stoichiometric; FP: 0.060 uM FAM-oligo, 10-1500 mM NaCl, room temperature; CD: Buffer A 25 mM Tris pH 7.5, 2 mM MgCl2, 6% glycerol, 1 mM DTT, 100 (or 10) mM NaCl, room temperature. The arrangement: unit not given here. To be noted: protein: recombinant; copies: 1;1;1; label: 5' 6-FAM.

Data set [15] has as its target T1, RPA-CDE-core. The experiment in a line: FP; 500 mM NaCl; FP: 0.060 uM FAM-oligo, 10-1500 mM NaCl, room temperature; CD: Buffer A 25 mM Tris pH 7.5, 2 mM MgCl2, 6% glycerol, 1 mM DTT, 100 (or 10) mM NaCl, room temperature. Conditions: protein: recombinant; tags: N-terminal His, thrombin-cleaved; copies: 1;1;1; label: 5' 6-FAM.
Data set [16] concerns the target T5, RPA-AB. The data set is described as above. Conditions: protein: recombinant; tags: N-terminal His6, thrombin-cleaved; label: 5' 6-FAM.
In data set [17] the target is T1, RPA-CDE-core. In words: FP; 1250 mM NaCl; FP: 0.060 uM FAM-oligo, 10-1500 mM NaCl, room temperature; CD: Buffer A 25 mM Tris pH 7.5, 2 mM MgCl2, 6% glycerol, 1 mM DTT, 100 (or 10) mM NaCl, room temperature. Details: unit not given here. To be noted: protein: recombinant; tags: N-terminal His, thrombin-cleaved; copies: 1;1;1; label: 5' 6-FAM.
For data set [18], the target named is T5, RPA-AB. The description is as above. The arrangement: unit not given here. To be noted: protein: recombinant; tags: N-terminal His6, thrombin-cleaved; label: 5' 6-FAM.

T5 sequence (P27694 181-441): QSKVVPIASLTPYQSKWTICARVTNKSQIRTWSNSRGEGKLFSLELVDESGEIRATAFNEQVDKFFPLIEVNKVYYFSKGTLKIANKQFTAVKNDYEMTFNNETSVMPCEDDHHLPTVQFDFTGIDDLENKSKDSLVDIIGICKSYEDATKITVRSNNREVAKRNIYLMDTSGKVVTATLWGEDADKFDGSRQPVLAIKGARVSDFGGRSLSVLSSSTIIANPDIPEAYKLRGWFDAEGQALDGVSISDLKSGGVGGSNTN
T1 sequence (P27694 436-616, chain 1 of 3): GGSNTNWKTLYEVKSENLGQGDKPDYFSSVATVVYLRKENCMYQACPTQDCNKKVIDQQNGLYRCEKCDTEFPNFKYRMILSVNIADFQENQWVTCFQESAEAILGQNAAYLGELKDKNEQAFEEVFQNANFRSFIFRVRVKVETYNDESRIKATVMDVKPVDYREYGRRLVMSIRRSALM
T1 sequence (P15927 43-171, chain 2 of 3): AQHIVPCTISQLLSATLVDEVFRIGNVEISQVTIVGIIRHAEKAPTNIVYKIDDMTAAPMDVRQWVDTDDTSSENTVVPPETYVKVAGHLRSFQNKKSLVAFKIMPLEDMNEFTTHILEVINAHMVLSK
T1 sequence (P35244 whole entry, chain 3 of 3): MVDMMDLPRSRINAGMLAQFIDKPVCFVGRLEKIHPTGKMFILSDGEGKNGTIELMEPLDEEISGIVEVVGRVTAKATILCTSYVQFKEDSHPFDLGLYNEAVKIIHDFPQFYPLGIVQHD
T3 sequence (P15927 43-171, chain 1 of 2): as the sequence (P15927 43-171, chain 2 of 3) above
T3 sequence (P35244 whole entry, chain 2 of 2): as the sequence (P35244 whole entry, chain 3 of 3) above
T4 sequence (P27694 whole entry, chain 1 of 3): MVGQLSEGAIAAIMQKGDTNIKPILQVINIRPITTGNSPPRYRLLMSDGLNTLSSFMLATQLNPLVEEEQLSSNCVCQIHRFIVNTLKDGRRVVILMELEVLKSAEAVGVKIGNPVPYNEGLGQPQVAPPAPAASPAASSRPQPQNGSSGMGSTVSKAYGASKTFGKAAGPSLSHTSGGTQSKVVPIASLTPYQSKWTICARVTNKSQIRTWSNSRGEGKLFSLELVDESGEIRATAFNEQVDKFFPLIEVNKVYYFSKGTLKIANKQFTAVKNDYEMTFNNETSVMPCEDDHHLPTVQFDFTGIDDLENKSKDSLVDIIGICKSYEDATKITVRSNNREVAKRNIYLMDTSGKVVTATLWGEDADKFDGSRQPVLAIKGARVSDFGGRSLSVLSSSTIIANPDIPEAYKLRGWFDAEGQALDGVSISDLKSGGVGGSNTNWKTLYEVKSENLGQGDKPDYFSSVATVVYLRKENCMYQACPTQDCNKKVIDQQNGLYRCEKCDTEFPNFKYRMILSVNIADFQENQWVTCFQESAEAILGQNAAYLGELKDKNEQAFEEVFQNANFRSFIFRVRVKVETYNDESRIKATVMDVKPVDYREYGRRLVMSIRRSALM
T4 sequence (P15927 whole entry, chain 2 of 3): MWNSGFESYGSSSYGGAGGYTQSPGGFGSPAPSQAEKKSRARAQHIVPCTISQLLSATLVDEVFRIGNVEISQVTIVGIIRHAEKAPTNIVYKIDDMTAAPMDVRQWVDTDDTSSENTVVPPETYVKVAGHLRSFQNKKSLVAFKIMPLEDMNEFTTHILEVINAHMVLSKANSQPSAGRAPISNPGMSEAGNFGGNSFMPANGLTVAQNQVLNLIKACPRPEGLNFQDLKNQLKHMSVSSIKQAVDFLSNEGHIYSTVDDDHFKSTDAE
T4 sequence (P35244 whole entry, chain 3 of 3): as the sequence (P35244 whole entry, chain 3 of 3) above
T2 sequence (P27694 432-595 V435T/W442Q/V465T/V469T/F523S/F567S/I571T): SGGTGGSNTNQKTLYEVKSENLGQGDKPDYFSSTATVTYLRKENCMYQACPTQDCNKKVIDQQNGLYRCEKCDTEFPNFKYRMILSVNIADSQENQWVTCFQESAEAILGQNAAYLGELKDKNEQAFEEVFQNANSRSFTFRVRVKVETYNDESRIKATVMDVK

B1: Gq23 (CD, unlabeled) (structured_DNA)
DNA: TAGGGGAAGGGTTGGAGTGGGTT
In the case of B1, the binding result in the data set with RPA-CDE-core [1], in the data set with RPA-C [2] and with RPA-DE [3] was “binds” throughout.

B2: Comp competitor (unlabeled) (ssDNA)
DNA: ATCCCCTTCCCAACCTCACCCAA
On to B2, for which the binding result (in [4]; in the data set with RPA-CDE-core [5]) was “binds” in each case.

B3: polyA (ssDNA)
DNA: AAAAAAAAAAAAAAAAAAAAAAA
modifications: 18-carbon spacer (sp18) at 5' end
As for B3, the binding result with RPA-DE [6] and in the data set with RPA-C [7] was “no binding” throughout. Besides, the Kd was determined as 0.53 with RPA-CDE-core [8], 5.88 in the data set with RPA-CDE-core [9], 1.83 in the data set with RPA-AB [10] and 0.17 in data set [11].

B4: Anti (Comp) (ssDNA)
DNA: ATCCCCTTCCCAACCTCACCCAA
modifications: 18-carbon spacer (sp18) at 5' end
In the case of B4, in the data set with RPA-DE [6], the binding result was “no binding”. For the same molecule, the Kd in the data set with RPA-CDE-core [8] is 0.22; with RPA-C [12] it was 3.32; with RPA-AB [13] it was 2.45; in [14] it was approximately 0.06; with RPA-CDE-core [9] it was 0.42; with RPA-AB [10] it was 0.66. Also, the Kd stood at 0.75 in the data set with RPA-CDE-core [15], 1.79 with RPA-AB [16], 2.81 in the data set with RPA-CDE-core [17] and 2.65 in the data set with RPA-AB [18].
